± gives the uncertainty stated by the source.
Experiment: self-splicing fitness, log relative to wild type (ln ratio); higher = more splicing; Tetrahymena group I intron in knt gene, E. coli kanamycin selection, DiMSum; sequences stand for … in CUCUCU…GGAGGGAAAAGUUAUCAGGCAUGCACCUGGUAGCUAGUCUUUAAACCAAUAGAUUGCAUCGGUUUAAAAGGCAAGACCGUCAAAUUGCGGGAAAGGGGUCAACAGCCGUUCAGUACCAAGUCUCAGGGGAAACUUUGAGAUGGCCUUGCAAAGGGUAUGGUAAUAAGCUGACGGACAUGGUCCUAACCACGCAGCCAAGUCCUAAGUCAACAGAUCUUCUGUUGAUAUGGAUGCAGUUCACAGACUAAAUGUCGGUCGGGGAAGAUGUAUUCUUCUCAUAAGAUAUAGUCGGACCUCUCCUUAAUGGGAGCUAGCGGAUGAAGUGAUGCAACACUGGAGCCGCUGGGAACUAAUUUGUAUGCGAAAGUAUAUUGAUUAGUUUUGGAGUACUCGUGGUCG
Summary of the method: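 Six replicate transformations of E. coli BL21(DE3) with a pET-22b(+) library were grown overnight at 37°C or 30°C. The library randomised all eight P1ex-region intron nucleotides, the intron lying in the knt kanamycin-resistance gene, and plates were LB agar with or without 25 μg/mL kanamycin plus 100 μg/mL carbenicillin, 50 μM IPTG and 0.2% rhamnose. Pooled colonies were amplicon-sequenced on an Illumina HiSeq 2500, and fitness is the DiMSum error-weighted combination of wild-type-normalised replicate fold changes, kanamycin versus none.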

Row | Sequence | self-splicing fitness (ln) (30 °C) | self-splicing fitness (ln) (37 °C)
1 | CGUUAGCAAUAUUACGUGCA | -1.38 ± 0.11 | -0.0413 ± 0.11
2 | GUCCAGCAAUAUUACGAUAU | -0.337 ± 0.056 | 0.114 ± 0.065
3 | CUACAGCAAUAUUACGUUCA | -2.98 ± 0.19 | -0.865 ± 0.098
4 | CGACAGCAAUAUUACGUUUG | -3.09 ± 0.15 | -1.19 ± 0.11
5 | ACUUAGCAAUAUUACGUAAU | -2.39 ± 0.1 | -1.54 ± 0.12
6 | GUCCAGCAAUAUUACGGCUG | -3.93 ± 0.31 | -3.61 ± 0.39
7 | GGCAAGCAAUAUUACGAAAG | -2.97 ± 0.28 | 
8 | CCAUAGCAAUAUUACGAGCA | -3.11 ± 0.2 | -2.11 ± 0.23
9 | AGUUAGCAAUAUUACGUUGG | -2.67 ± 0.19 | -2.3 ± 0.21
10 | ACAAAGCAAUAUUACGGUAU | -3.56 ± 0.13 | -1.35 ± 0.099
11 | UAUGAGCAAUAUUACGUCUA | -0.497 ± 0.1 | -0.408 ± 0.13
12 | GUGAAGCAAUAUUACGACAG | -2.07 ± 0.16 | -1.25 ± 0.17
13 | CAGGAGCAAUAUUACGGCGG | -0.542 ± 0.074 | -0.0448 ± 0.091
14 | AAAUAGCAAUAUUACGUGAC | -1.53 ± 0.2 | 
15 | GACGAGCAAUAUUACGCUAU | -3.39 ± 0.2 | -2.42 ± 0.25
16 | CAGCAGCAAUAUUACGAGGG | -3.15 ± 0.097 | -1.12 ± 0.093
17 | GGUAAGCAAUAUUACGCUUC | -4.14 ± 0.42 | -1.58 ± 0.35
18 | AACGAGCAAUAUUACGUGAU | -3.03 ± 0.18 | -0.913 ± 0.13
19 | CUAGAGCAAUAUUACGAUAU | -3.18 ± 0.27 | -2.09 ± 0.25
20 | UCUAAGCAAUAUUACGGGUA | -1.64 ± 0.11 | -0.58 ± 0.1
21 | UAUAAGCAAUAUUACGCCCA | -0.492 ± 0.13 | -0.495 ± 0.2
22 | CCAUAGCAAUAUUACGUGUA | -4.27 ± 0.25 | -2.71 ± 0.22
23 | CGAGAGCAAUAUUACGAAUU | -2.77 ± 0.29 | 
24 | UCCGAGCAAUAUUACGUCAA | -2.89 ± 0.26 | -2.27 ± 0.36
25 | AGCUAGCAAUAUUACGCUGC | -3.59 ± 0.48 | 

Row | Sequence | self-splicing fitness (ln) (30 °C) | self-splicing fitness (ln) (37 °C)
26 | UGUUAGCAAUAUUACGAGUU | -3.66 ± 0.28 | -1.85 ± 0.19
27 | UUACAGCAAUAUUACGGCGU | -2.6 ± 0.14 | -2.57 ± 0.21
28 | CGGCAGCAAUAUUACGCGGC | -2.84 ± 0.27 | -3.03 ± 0.26
29 | CCCGAGCAAUAUUACGCUUG |  | -2.06 ± 0.33
30 | GAGUAGCAAUAUUACGCGCA | -1.93 ± 0.15 | -0.701 ± 0.2
31 | ACGGAGCAAUAUUACGACGC | -1.26 ± 0.15 | -1.11 ± 0.17
32 | CCCGAGCAAUAUUACGGAAA | -2.2 ± 0.32 | -1.57 ± 0.33
33 | UUGCAGCAAUAUUACGCGCG | -1.88 ± 0.12 | -1.29 ± 0.14
34 | AGCUAGCAAUAUUACGAUAG | -3.51 ± 0.2 | -2.84 ± 0.23
35 | GAGUAGCAAUAUUACGUACU | -2.67 ± 0.15 | -1.67 ± 0.16
36 | GCUUAGCAAUAUUACGAAAA | -1.6 ± 0.29 | -1.12 ± 0.28
37 | AUAUAGCAAUAUUACGUAGC | -4.04 ± 0.39 | -2.54 ± 0.33
38 | AGUCAGCAAUAUUACGCAAG | -2.69 ± 0.26 | -1.28 ± 0.29
39 | CUAUAGCAAUAUUACGAGUA | -2.86 ± 0.41 | -1.62 ± 0.23
40 | UUUGAGCAAUAUUACGGGGA |  | -2.42 ± 0.41
41 | AGAUAGCAAUAUUACGAGCA | -0.984 ± 0.1 | -0.95 ± 0.11
42 | AGGCAGCAAUAUUACGAAAU | -1.8 ± 0.13 | -1.34 ± 0.15
43 | UCAGAGCAAUAUUACGAUCA | -3.07 ± 0.35 | -2.6 ± 0.31
44 | AGGGAGCAAUAUUACGAACG | -2.58 ± 0.39 | -1.9 ± 0.36
45 | UAUGAGCAAUAUUACGAAAU | -3.68 ± 0.37 | 
46 | CUCCAGCAAUAUUACGCGAU | -3.55 ± 0.13 | -2.24 ± 0.14
47 | UUUAAGCAAUAUUACGCGUG | -1.15 ± 0.13 | -0.368 ± 0.14
48 | AGUGAGCAAUAUUACGAUCA | -1.64 ± 0.13 | -0.675 ± 0.16
49 | UGGUAGCAAUAUUACGGUUU | -2.64 ± 0.17 | -2.6 ± 0.23
50 | UCCCAGCAAUAUUACGUCGG | -2.16 ± 0.13 | -2.59 ± 0.23

Row | Sequence | self-splicing fitness (ln) (30 °C) | self-splicing fitness (ln) (37 °C)
51 | GCUCAGCAAUAUUACGGUAG | -2.79 ± 0.26 | -1.89 ± 0.21
52 | GUAGAGCAAUAUUACGGUGG | -3.39 ± 0.45 | -0.894 ± 0.23
53 | GCGUAGCAAUAUUACGAGAG | -3.3 ± 0.28 | -3.27 ± 0.33
54 | GCAGAGCAAUAUUACGUUUA | -2.56 ± 0.3 | 
55 | UGCAAGCAAUAUUACGCGGC | -2.85 ± 0.17 | -2.3 ± 0.2
56 | AACUAGCAAUAUUACGCCCA | -0.951 ± 0.14 | 0.0227 ± 0.17
57 | UCGCAGCAAUAUUACGAACG | -2.63 ± 0.39 | -1.05 ± 0.3
58 | UGGUAGCAAUAUUACGCUUC | -2.63 ± 0.29 | -0.643 ± 0.35
59 | AGAAAGCAAUAUUACGUUAC | -3.26 ± 0.19 | -1.89 ± 0.18
60 | AUGAAGCAAUAUUACGCCCG | -0.353 ± 0.25 | -0.729 ± 0.38
61 | UGACAGCAAUAUUACGGCAG | -0.0451 ± 0.065 | 0.0375 ± 0.079
62 | ACCUAGCAAUAUUACGUAAU | -1.28 ± 0.049 | -0.573 ± 0.066
63 | CAGAAGCAAUAUUACGGAUA | -2.48 ± 0.13 | -1.43 ± 0.11
64 | CGGAAGCAAUAUUACGUCAC |  | -1.76 ± 0.4
65 | CACAAGCAAUAUUACGCCUC | -2.86 ± 0.2 | -1.95 ± 0.23
66 | GCGAAGCAAUAUUACGACCG | -1.66 ± 0.25 | -0.671 ± 0.21
67 | CUUCAGCAAUAUUACGAUAA | -2.68 ± 0.19 | -1.07 ± 0.14
68 | CCGCAGCAAUAUUACGAUGU | -3.21 ± 0.14 | -2.83 ± 0.17
69 | GAUUAGCAAUAUUACGAGGU | -3.27 ± 0.18 | -3.89 ± 0.33
70 | UCCCAGCAAUAUUACGAGAU | -3.57 ± 0.23 | -2.66 ± 0.17
71 | UACGAGCAAUAUUACGGCUU | -3.48 ± 0.21 | -1.84 ± 0.16
72 | CGGAAGCAAUAUUACGGACU | -0.00733 ± 0.094 | -0.0682 ± 0.14
73 | AAUCAGCAAUAUUACGCCAG | -0.398 ± 0.16 | -1.58 ± 0.17
74 | AGCCAGCAAUAUUACGGUAG | -2.6 ± 0.097 | -0.58 ± 0.085
75 | ACGCAGCAAUAUUACGCGUC | -4.42 ± 0.17 | -2.18 ± 0.14

Row | Sequence | self-splicing fitness (ln) (30 °C) | self-splicing fitness (ln) (37 °C)
76 | GUAUAGCAAUAUUACGGUAU | -2.73 ± 0.18 | -2.26 ± 0.19
77 | AAAAAGCAAUAUUACGGAUU | -0.657 ± 0.068 | -0.635 ± 0.096
78 | GGAAAGCAAUAUUACGUAAU | -1.3 ± 0.07 | -1.23 ± 0.12
79 | AUGUAGCAAUAUUACGCUAC | -3.14 ± 0.34 | -2.59 ± 0.34
80 | GUCAAGCAAUAUUACGAACG | -2.06 ± 0.15 | -1.27 ± 0.15
81 | ACACAGCAAUAUUACGAAAA | -3.2 ± 0.19 | -3 ± 0.19
82 | UGCUAGCAAUAUUACGAGCU | -0.987 ± 0.068 | -0.622 ± 0.082
83 | UUGGAGCAAUAUUACGAGAA |  | -1.78 ± 0.44
84 | CCAAAGCAAUAUUACGUUUC | -4.24 ± 0.25 | -2.78 ± 0.24
85 | ACUCAGCAAUAUUACGCUCU | -0.15 ± 0.067 | 0.559 ± 0.094
86 | ACAGAGCAAUAUUACGGGUU | -2.43 ± 0.1 | -3.08 ± 0.18
87 | CAAAAGCAAUAUUACGCUUU | -3.96 ± 0.21 | -2.55 ± 0.17
88 | UAUUAGCAAUAUUACGACAC | -1.54 ± 0.14 | -1.92 ± 0.21
89 | UCGAAGCAAUAUUACGGUAC | -4.43 ± 0.39 | 
90 | CGCUAGCAAUAUUACGAACG | -2.16 ± 0.099 | -1.1 ± 0.11
91 | CAUGAGCAAUAUUACGGGAC | -2.99 ± 0.18 | -1.95 ± 0.24
92 | CCUAAGCAAUAUUACGAGAU | -3.2 ± 0.27 | -3.33 ± 0.31
93 | CACUAGCAAUAUUACGCCUG | -0.103 ± 0.15 | -0.344 ± 0.14
94 | CCGCAGCAAUAUUACGGAGA | -2.53 ± 0.17 | -2.36 ± 0.21
95 | CACCAGCAAUAUUACGCGUA | -0.717 ± 0.061 | -0.165 ± 0.066
96 | GCCAAGCAAUAUUACGAGCA | -1.82 ± 0.14 | -1.11 ± 0.15
97 | CUUCAGCAAUAUUACGCGUG | -0.775 ± 0.08 | -0.978 ± 0.1
98 | UGAAAGCAAUAUUACGACUA | -0.403 ± 0.08 | 0.139 ± 0.11
